Assay results as given in US9187525B2, “Methods of treating ophthalmic diseases using NPR-B agonists” (Shire Orphan Therapies GmbH, dated 2015).
Numbered stars: 1 amine (or outer) side, 2 acyl side, 3 side chain; on linkers, the order of the positions; unused ones are H or OH. Square brackets hold non-standard residues; d marks the D form. Ends that are not written are not given here. * marks the point of attachment. Dtp = (R)-2,2-dimethylthiazolidine-4-carboxylic acid, CC1(C)SC[C@@H](C(=O)[*:2])N1[*:1]; Ebe = (R)-2-amino-3-(methylsulfanyl)propanoic acid, CSC[C@H](N[*:1])C(=O)[*:2]; Sni = (S)-nipecotic acid, O=C([C@H]1CCCN([*:1])C1)[*:2]; Pro(trans-4-Ph) = O=C(O)[C@@H]1C[C@@H](c2ccccc2)CN1; Phe(3-Cl) = N[C@@H](Cc1cccc(Cl)c1)C(=O)O; Pro(cis-4-F) = O=C(O)[C@@H]1C[C@H](F)CN1; Pro(4S-NH2) = N[C@@H]1CN[C@H](C(=O)O)C1; cisHyp = O=C(O)[C@@H]1C[C@H](O)CN1; NMeF = CN[C@@H](Cc1ccccc1)C(=O)O; NMeL = CN[C@@H](CC(C)C)C(=O)O; d(αMeP) = C[C@]1(C(=O)O)CCCN1; hLeu = CC(C)CC[C@H](N)C(=O)O; dAze = O=C(O)[C@H]1CCN1; Hexanoyl = CCCCCC(=O)*; Ac3c = NC1(C(=O)O)CC1; Occ = octanoic acid; Sar = CNCC(=O)O

B1: JAL-0946 (peptide)
peptide: [Occ][dA][Phe(3-Cl)]GLPLDRI-NH2
B2: JAL-0956 (peptide)
peptide: [Occ][Sni]FGLP[NMeL]DRI-NH2
B3: JAL-0953 (peptide)
peptide: [Occ][dAze]FGLPLDRI-NH2
B4: JAL-0950 (peptide)
peptide: [Occ][Sar]FGLPLDRI-NH2
B5: JAL-0945 (peptide)
peptide: [Occ][dA]F[Ac3c]LPLDRI-NH2
B6: JAL-0954 (peptide)
peptide: [Occ][dA][NMeF]GLP[NMeL]DRI-NH2
B7: JAL-0978 (peptide)
peptide: [Occ]AFGL[Pro(cis-4-F)]LDRI-NH2
modifications: not fully specified (residue 2); printed as Occ-ala-Phe-Gly-Leu-Fpr-Leu-Asp-Arg-Ile-NH2
B8: JAL-0964 (peptide)
peptide: [Occ][dA]FGL[cisHyp]LDRI-NH2
B9: JAL-0979 (peptide)
peptide: [Occ]AFGL[Dtp]LDRI-NH2
modifications: not fully specified (residue 2); printed as Occ-ala-Phe-Gly-Leu-Dtp-Leu-Asp-Arg-Ile-NH2
B10: JAL-0957 (peptide)
peptide: [Occ][dP][NMeF]GLP[NMeL]DRI-NH2
B11: JAL-0951 (peptide)
peptide: [Occ]GFGLPLDRI-NH2
B12: JAL-0955_01 (peptide)
peptide: [Occ][dP]FGLP[NMeL]DRI-NH2
B13: JAL-0975 (peptide)
peptide: [Occ]AFGL[Pro(trans-4-Ph)]LDRI-NH2
modifications: not fully specified (residue 2); printed as Occ-ala-Phe-Gly-Leu-Eay-Leu-Asp-Arg-Ile-NH2
B14: JAL-0533 (peptide)
peptide: Hexanoyl-[Ebe][dP]FGLPIDRIS[Ebe]-NH2
B15: JAL-0959 (peptide)
peptide: [Occ][dA]FGLP[hLeu]DRI-NH2
B16: JAL-0967_01 (peptide)
peptide: [Occ][Sni][NMeF]GLPLDRI-NH2
B17: JAL-0974 (peptide)
peptide: [Occ]AFGL[Pro(4S-NH2)]LDRI-NH2
modifications: not fully specified (residue 2); printed as Occ-ala-Phe-Gly-Leu-Apr-Leu-Asp-Arg-Ile-NH2
B18: JAL-0944 (peptide)
peptide: [Occ][dA]F[dA]LPLDRI-NH2
B19: JAL-0962 (peptide)
peptide: [Occ][dA]FGL[d(αMeP)]LDRI-NH2
B20: JAL-0966 (peptide)
peptide: [Occ][dP][NMeF]GLPLDRI-NH2
B21: JAL-0958_01 (peptide)
peptide: [Occ][Sni][NMeF]GLP[NMeL]DRI-NH2

Target: T1, natriuretic peptide receptor-B (human)
T1 chain: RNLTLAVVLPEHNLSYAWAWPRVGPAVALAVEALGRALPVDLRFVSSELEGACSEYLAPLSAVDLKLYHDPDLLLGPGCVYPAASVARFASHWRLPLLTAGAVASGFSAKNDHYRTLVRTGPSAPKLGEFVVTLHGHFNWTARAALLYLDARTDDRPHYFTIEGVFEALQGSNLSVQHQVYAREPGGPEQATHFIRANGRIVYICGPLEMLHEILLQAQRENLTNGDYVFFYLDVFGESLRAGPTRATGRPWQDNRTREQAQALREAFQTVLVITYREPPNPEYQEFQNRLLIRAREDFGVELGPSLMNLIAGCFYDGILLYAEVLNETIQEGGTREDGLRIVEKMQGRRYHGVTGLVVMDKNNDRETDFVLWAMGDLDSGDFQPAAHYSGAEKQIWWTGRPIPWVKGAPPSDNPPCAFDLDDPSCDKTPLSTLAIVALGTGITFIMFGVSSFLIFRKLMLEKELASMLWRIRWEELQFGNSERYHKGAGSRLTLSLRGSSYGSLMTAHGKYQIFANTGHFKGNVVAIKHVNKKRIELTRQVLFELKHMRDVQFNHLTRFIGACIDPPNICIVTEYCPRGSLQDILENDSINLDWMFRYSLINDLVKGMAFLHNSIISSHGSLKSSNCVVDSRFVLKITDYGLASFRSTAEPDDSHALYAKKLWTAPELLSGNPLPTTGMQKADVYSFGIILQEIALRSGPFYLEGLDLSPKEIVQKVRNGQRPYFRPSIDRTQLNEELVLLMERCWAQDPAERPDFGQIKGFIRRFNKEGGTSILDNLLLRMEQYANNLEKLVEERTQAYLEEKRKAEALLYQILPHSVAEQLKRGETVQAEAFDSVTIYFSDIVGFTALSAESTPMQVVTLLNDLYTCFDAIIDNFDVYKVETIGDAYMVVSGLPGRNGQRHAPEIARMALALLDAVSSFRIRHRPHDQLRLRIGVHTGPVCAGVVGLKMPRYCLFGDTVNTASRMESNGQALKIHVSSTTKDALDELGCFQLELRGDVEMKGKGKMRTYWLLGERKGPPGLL
Test: cell-based or functional assay

Binder | EC50 group, cGMP in GTM-3 cells [µM]
B1 | ≤ 15
B2 | ≤ 5
B3 | ≤ 5
B4 | ≤ 15
B5 | ≤ 15
B6 | ≤ 5
B7 | ≤ 15
B8 | ≤ 15
B9 | ≤ 15
B10 | ≤ 15
B11 | ≤ 15
B12 | ≤ 5
B13 | ≤ 15
B14 | ≤ 15
B15 | ≤ 15
B16 | ≤ 15
B17 | ≤ 5
B18 | ≤ 15
B19 | ≤ 15
B20 | ≤ 15
B21 | ≤ 5
